Test results from publication PMC5133854.

Assays:
Q9RGN5 = assay: AFM single-molecule force spectroscopy; MUB covalently attached to both the AFM tip and the glass slide; PBS pH 7.4; force-volume mode; repeated after adding free MUB (0.05 mg/mL) or anti-Mub antibody (0.05 mg/mL); conditions: other: AFM single-molecule force spectroscopy
[1] = molecular target: mucus-binding protein (MUB) from Lactobacillus reuteri ATCC 53608 (Lactobacillus reuteri ATCC 53608) (UniProt Q9RGN5); assay: as above
[2] = molecular target: purified porcine gastric mucin (pPGM) (porcine); assay: AFM single-molecule force spectroscopy; MUB covalently attached to the AFM tip, pPGM covalently attached to the glass slide; PBS pH 7.4; force-volume mode, 2 um/s, 1024 force-distance curves; repeated on the same region after adding free sugars or anti-Mub antibody (0.05 mg/mL)
[3] = molecular target: purified porcine gastric mucin (pPGM) (porcine); assay: AFM single-molecule force spectroscopy; Gal-3 covalently attached to the AFM tip, pPGM covalently attached to the glass slide; PBS pH 7.4; force-volume mode

Substance: mucus-binding protein (MUB) from Lactobacillus reuteri ATCC 53608
- percent of force curves with unfolding events (Q9RGN5): the numbers of unfolding events in the force volume maps were 71% of the 1024 force curves

Substance: mucus-binding protein (MUB) from Lactobacillus reuteri ATCC 53608 (from UniProt Q9RGN5 1-3269) (natural protein)
- modal value of the rupture adhesion force [1]: 209 pN
- modal value of the rupture adhesion force [2]: 380 pN
- modal value of the rupture adhesion force (PBS, before the antibody) [2]: 482 pN

Substance: Galectin-3 (Gal-3) (from UniProt P17931 1-250) (natural protein)
- binding energy [3]: 0.79 aJ
- energy (integration of the adhesive peaks) [3]: 3.08 aJ
